From paper PMC10082178

Key:
[1] = molecular target: integrin αIIbβ3 (human (endogenous in platelets)) (UniProt P05106); assay: native gel or EMSA; SMA-PAGE: whole cell SMALPs of resting human platelets (2.5% SMA, NaCl to 500 mM) on native Tris-Glycine gels, western blot with anti-αIIb or anti-CLEC-2 AYP2
[2] = molecular target: N-terminal eGFP-tagged human CLEC-2 (CLEC-2-eGFP) (human) (UniProt Q9P126)
Chain of UniProt Q9P126 (Q9P126 whole entry): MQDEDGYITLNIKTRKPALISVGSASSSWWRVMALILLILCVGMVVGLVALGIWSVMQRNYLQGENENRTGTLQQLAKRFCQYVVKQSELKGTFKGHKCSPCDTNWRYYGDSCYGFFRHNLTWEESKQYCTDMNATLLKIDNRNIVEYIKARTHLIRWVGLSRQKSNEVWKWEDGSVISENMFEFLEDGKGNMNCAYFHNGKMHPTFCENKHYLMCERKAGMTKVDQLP

| Substance | stoichiometry N [1] | NFAT-luciferase response to rhodocytin (30 nM) in low-expressing CLEC-2-eGFP (100 ng) DT40 cells: percent blocked by LUAS-2 (3 μM, 30 min before rhodocytin) [2] [%] |
| --- | --- | --- |
| integrin αIIbβ3 (from UniProt P05106 27-788) (complex) | 2 |  |
| rhodocytin (complex) |  | 50 |
